Laboratory results published in patent publication US20090280138A1 (OXFORD BIOMEDICA UK, published 2009).

How the values were obtained:
[1] = target: T1, MHC class I molecule HLA-A*0301 (iTopia plate-bound monomer) (biotin (bound to streptavidin-coated plate)); test: iTopia off-rate assay, 37 C; fit R^2 0.01
T1 construct: also called A3
Method: (§1) The 9 mers were tested for Peptide Binding, Off Rate and Affinity using iTopia Epitope Discovery System in accordance with the manufacturer's instructions. Briefly, 96 well microtitre plates coated with MHC molecules representing different MHC alleles are used to identify candidate peptides. […] Determinations are performed in duplicate using an ELISA plate reader and included allele specific positive controls.
(§2) A one-phase exponential decay curve, with a plateau given equal to 0, was generated using GraphPad Prism® software, which calculated the t1/2 and goodness-of-fit, as measured by r², for each peptide.

[2] = target: T1, MHC class I molecule HLA-A*0301 (iTopia …); test: iTopia off-rate assay, 37 C; fit R^2 0.84
Procedure, shortened: (§3)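 Each t1/2 is derived by fitting a single-phase exponential decay, with the plateau set to zero, to peptide dissociation from plate-coated MHC. The same fit supplies r² for every peptide. Nonamers are measured in duplicate using an ELISA reader.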

[3] = target: T2, MHC class I molecule HLA-A*0201 (iTopia plate-bound monomer) (biotin (bound to streptavidin-coated plate)); test: iTopia off-rate assay, 37 C; fit R^2 0.02
T2 construct: also called A2
Method: as §1, §2

[4] = target: T2, MHC class I molecule HLA-A*0201 (iTopia …); test: iTopia off-rate assay, 37 C; fit R^2 0.42
Method: as §1, §2

[5] = target: T1, MHC class I molecule HLA-A*0301 (iTopia …); test: iTopia off-rate assay, 37 C; fit R^2 0.64
Method: as §1, §2

[6] = target: T3, MHC class I molecule HLA-B*0702 (iTopia plate-bound monomer) (biotin (bound to streptavidin-coated plate)); test: iTopia off-rate assay, 37 C; fit R^2 0.82
T3 construct: Commercial iTopia system; also called B7
Method: as §1, §2

[7] = target: T4, MHC class I molecule HLA-A*0101 (iTopia plate-bound monomer) (biotin (bound to streptavidin-coated plate)); test: iTopia off-rate assay, 37 C; fit R^2 0.12
T4 construct: also called A1
Method: as §1, §2

[8] = target: T3, MHC class I molecule HLA-B*0702 (iTopia …); test: iTopia off-rate assay, 37 C; fit R^2 0.73
Method: as §1, §2

[9] = target: T1, MHC class I molecule HLA-A*0301 (iTopia …); test: iTopia off-rate assay, 37 C; fit R^2 0.99
Method: as §1, §2

[10] = target: T2, MHC class I molecule HLA-A*0201 (iTopia …); test: iTopia off-rate assay, 37 C; fit R^2 0.2
Method: as §1, §2

[11] = target: T3, MHC class I molecule HLA-B*0702 (iTopia …); test: iTopia off-rate assay, 37 C; fit R^2 0.94
Procedure, shortened: as §3

[12] = target: T2, MHC class I molecule HLA-A*0201 (iTopia …); test: iTopia off-rate assay, 37 C; fit R^2 0.9
Procedure, shortened: as §3

[13] = target: T2, MHC class I molecule HLA-A*0201 (iTopia …); test: iTopia off-rate assay, 37 C; fit R^2 0.72
Method: as §1, §2

[14] = target: T4, MHC class I molecule HLA-A*0101 (iTopia …); test: iTopia off-rate assay, 37 C; fit R^2 0.18
Method: as §1, §2

[15] = target: T2, MHC class I molecule HLA-A*0201 (iTopia …); test: iTopia off-rate assay, 37 C; fit R^2 0.11
Method: as §1, §2

[16] = target: T2, MHC class I molecule HLA-A*0201 (iTopia …); test: iTopia off-rate assay, 37 C; fit R^2 0.26
Method: as §1, §2

[17] = target: T2, MHC class I molecule HLA-A*0201 (iTopia …); test: iTopia off-rate assay, 37 C; fit R^2 0.95
Procedure, shortened: as §3

[18] = target: T1, MHC class I molecule HLA-A*0301 (iTopia …); test: iTopia off-rate assay, 37 C; fit R^2 0.61
Method: as §1, §2

[19] = target: T3, MHC class I molecule HLA-B*0702 (iTopia …); test: iTopia off-rate assay, 37 C; fit R^2 0.68
Method: as §1, §2

[20] = target: T2, MHC class I molecule HLA-A*0201 (iTopia …); test: iTopia off-rate assay, 37 C; fit R^2 0
Method: as §1, §2

[21] = target: T1, MHC class I molecule HLA-A*0301 (iTopia …); test: iTopia off-rate assay, 37 C; fit R^2 0.77
Method: as §1, §2

[22] = target: T3, MHC class I molecule HLA-B*0702 (iTopia …); test: iTopia off-rate assay, 37 C; fit R^2 0.76
Method: as §1, §2

[23] = target: T2, MHC class I molecule HLA-A*0201 (iTopia …); test: iTopia off-rate assay, 37 C; fit R^2 0.3
Method: as §1, §2

[24] = target: T3, MHC class I molecule HLA-B*0702 (iTopia …); test: iTopia off-rate assay, 37 C; fit R^2 0
Method: as §1, §2

[25] = target: T1, MHC class I molecule HLA-A*0301 (iTopia …); test: iTopia off-rate assay, 37 C; fit R^2 0.96
Method: as §1, §2

[26] = target: T2, MHC class I molecule HLA-A*0201 (iTopia …); test: iTopia off-rate assay, 37 C; fit R^2 0.87
Method: as §1, §2

[27] = target: T4, MHC class I molecule HLA-A*0101 (iTopia …); test: iTopia off-rate assay, 37 C; fit R^2 0.76
Method: as §1, §2

[28] = target: T3, MHC class I molecule HLA-B*0702 (iTopia …); test: iTopia off-rate assay, 37 C; fit R^2 0.95
Procedure, shortened: as §3

[29] = target: T2, MHC class I molecule HLA-A*0201 (iTopia …); test: iTopia off-rate assay, 37 C; fit R^2 0.58
Method: as §1, §2

[30] = target: T2, MHC class I molecule HLA-A*0201 (iTopia …); test: iTopia off-rate assay, 37 C; fit R^2 0.76
Method: as §1, §2

[31] = target: T3, MHC class I molecule HLA-B*0702 (iTopia …); test: iTopia off-rate assay, 37 C; fit R^2 0.87
Method: as §1, §2

[32] = target: T2, MHC class I molecule HLA-A*0201 (iTopia …); test: iTopia off-rate assay, 37 C; fit R^2 0.77
Method: as §1, §2

[33] = target: T1, MHC class I molecule HLA-A*0301 (iTopia …); test: iTopia off-rate assay, 37 C; fit R^2 0.97
Method: as §1, §2

[34] = target: T2, MHC class I molecule HLA-A*0201 (iTopia …); test: iTopia off-rate assay, 37 C; fit R^2 0.79
Method: as §1, §2

[35] = target: T3, MHC class I molecule HLA-B*0702 (iTopia …); test: iTopia off-rate assay, 37 C; fit R^2 0.1
Method: as §1, §2

[36] = target: T2, MHC class I molecule HLA-A*0201 (iTopia …); test: iTopia off-rate assay, 37 C; fit R^2 0.97
Method: as §1, §2

[37] = target: T4, MHC class I molecule HLA-A*0101 (iTopia …); test: iTopia off-rate assay, 37 C; fit R^2 0.15
Method: as §1, §2

[38] = target: T3, MHC class I molecule HLA-B*0702 (iTopia …); test: iTopia off-rate assay, 37 C; fit R^2 0.86
Method: as §1, §2

[39] = target: T2, MHC class I molecule HLA-A*0201 (iTopia …); test: iTopia off-rate assay, 37 C; fit R^2 0.81
Method: as §1, §2

[40] = target: T3, MHC class I molecule HLA-B*0702 (iTopia …); test: iTopia off-rate assay, 37 C; fit R^2 0.81
Method: as §1, §2

[41] = target: T2, MHC class I molecule HLA-A*0201 (iTopia …); test: iTopia off-rate assay, 37 C; fit R^2 0.75
Method: as §1, §2

[42] = target: T3, MHC class I molecule HLA-B*0702 (iTopia …); test: iTopia off-rate assay, 37 C; fit R^2 0.38
Method: as §1, §2

Question: For VVAALLAGR (also called Peptide No 100) [5T4 9-mer peptide 100 VVAALLAGR], which t½ half life [1] is on record?
Answer: The t½ half life was 8.1 h.

Question: How did the t½ half life [2] turn out when LIGAIFLLV (also called Peptide No 183) [5T4 9-mer peptide 183 LIGAIFLLV] was run?
Answer: Its t½ half life is 0.5 h.

Question: What about the t½ half life [3] of the same binder?
Answer: Its t½ half life is 19.4 h.

Question: What does the source list for GLPHIRVFL (also called Peptide No 142) [5T4 9-mer peptide 142 GLPHIRVFL]?
Answer: t½ half life [4]: 12.9 h; t½ half life [5]: 6 h; t½ half life [6]: 0.9 h

Question: For LTYVSFRNL [5T4 9-mer peptide 125 LTYVSFRNL], which t½ half life [7] is on record?
Answer: Its t½ half life is 3.9 h.

Question: And the t½ half life [8]?
Answer: Its t½ half life is 6 h.

Question: And the t½ half life [9]?
Answer: The t½ half life was 0.7 h.

Question: What about the t½ half life [10] of the same binder?
Answer: The t½ half life was 8.1 h.

Question: For LALIGAIFL (also called Peptide No 182) [5T4 9-mer peptide 182 LALIGAIFL], which t½ half life [11] is on record?
Answer: Its t½ half life is 0.5 h.

Question: What about the t½ half life [12] of the same binder?
Answer: The t½ half life was 3.2 h.

Question: LTCAYPEKM (also called Peptide No 161) [5T4 9-mer peptide 161 LTCAYPEKM] was tested. Which t½ half life [13] did it give?
Answer: The t½ half life was 3.1 h.

Question: And the t½ half life [14]?
Answer: The t½ half life was 3.7 h.

Question: EVVQGKDRL [5T4 9-mer peptide 157 EVVQGKDRL] was tested. Which t½ half life [15] did it give?
Answer: Its t½ half life is 11 h.

Question: Which t½ half life [16] does the source give for VFLGIVLAL (also called Peptide No 179) [5T4 9-mer peptide 179 VFLGIVLAL] here?
Answer: The t½ half life was 15 h.

Question: How did the t½ half life [17] turn out when RALQGLRRL [5T4 9-mer peptide 104 RALQGLRRL] was run?
Answer: Its t½ half life is 0.6 h.

Question: And the t½ half life [18]?
Answer: The t½ half life was 0.4 h.

Question: What about the t½ half life [19] of the same binder?
Answer: The t½ half life was 6 min.

Question: For LLVLYLNRK (also called Peptide No 186) [5T4 9-mer peptide 186 LLVLYLNRK], which t½ half life [20] is on record?
Answer: The t½ half life was 21.4 h.

Question: What about the t½ half life [21] of the same binder?
Answer: Its t½ half life is 3.2 h.

Question: Which t½ half life [22] does the source give for YPEKMRNRV (also called Peptide No 163) [5T4 9-mer peptide 163 YPEKMRNRV] here?
Answer: Its t½ half life is 1.9 h.

Question: For EKMRNRVLL [5T4 9-mer peptide 164 EKMRNRVLL], which t½ half life [23] is on record?
Answer: Its t½ half life is 7 h.

Question: Which results are given for YVSFRNLTH (also called Peptide No 126) [5T4 9-mer peptide 126 YVSFRNLTH]?
Answer: t½ half life [24]: 2.6 h; t½ half life [25]: 0.9 h

Question: For QTSYVFLGI (also called Peptide No 177) [5T4 9-mer peptide 177 QTSYVFLGI], which t½ half life [26] is on record?
Answer: Its t½ half life is 0.6 h.

Question: And the t½ half life [27]?
Answer: Its t½ half life is 0.2 h.

Question: LHNGTLAEL (also called Peptide No 137) [5T4 9-mer peptide 137 LHNGTLAEL] was tested. Which t½ half life [28] did it give?
Answer: The t½ half life was 0.3 h.

Question: And the t½ half life [29]?
Answer: Its t½ half life is 4.2 h.

Question: Which t½ half life [30] does the source give for LDLSNNSLV (also called Peptide No 120) [5T4 9-mer peptide 120 LDLSNNSLV] here?
Answer: Its t½ half life is 3.4 h.

Question: LPRDVLAQL [5T4 9-mer peptide 113 LPRDVLAQL] was tested. Which t½ half life [31] did it give?
Answer: The t½ half life was 3.3 h.

Question: With VLAQLPSLR [5T4 9-mer peptide 115 VLAQLPSLR] as the binder, how does the t½ half life [32] read?
Answer: The t½ half life was 0.6 h.

Question: What about the t½ half life [33] of the same binder?
Answer: The t½ half life was 0.2 h.

Question: AALLAGRAL [5T4 9-mer peptide 101 AALLAGRAL] was tested. Which t½ half life [34] did it give?
Answer: Its t½ half life is 1.9 h.

Question: And the t½ half life [35]?
Answer: The t½ half life was 1.6 h.

Question: Which t½ half life [36] does the source give for LASNHFLYL [5T4 9-mer peptide 109 LASNHFLYL] here?
Answer: The t½ half life was 1.3 h.

Question: What about the t½ half life [37] of the same binder?
Answer: Its t½ half life is 3 h.

Question: What about the t½ half life [25] of the same binder?
Answer: The t½ half life was 3.6 h.

Question: And the t½ half life [38]?
Answer: The t½ half life was 0.2 h.

Question: What does the source list for LPSLRHLDL (also called Peptide No 117) [5T4 9-mer peptide 117 LPSLRHLDL]?
Answer: t½ half life [39]: 0.7 h; t½ half life [40]: 3 h

Question: What does the source list for LSNNSLVSL [5T4 9-mer peptide 121 LSNNSLVSL]?
Answer: t½ half life [41]: 0.8 h; t½ half life [42]: 4.1 h
